Measurements: article PMC12381745
Numbering of substitutions follows the chain as printed. Names may count otherwise.

B1: LHD101A-βit I61C-L1-RNA protein-linker-RNA conjugate (designed binder)
chain: SELAVVAAIISAVARMGVKMELHPSGNEVKVVIKGLHIKQQRQLYRDVREAAKKAGVEVECEVEGDTVTIVVRG
modifications: here or on the partner: cysteine 61 joined by thiol-maleimide Michael addition to linker L1, whose DBCO is joined by SPAAC to the azide-functionalised 17mer RNA conjRNA1
B2: LHD101A-βit I61C-L2-RNA protein-linker-RNA conjugate (designed binder)
chain: B1 chain
modifications: here or on the partner: cysteine 61 joined by thiol-maleimide Michael addition to linker L2, whose DBCO is joined by SPAAC to the azide-functionalised 17mer RNA conjRNA1
B3: LHD101A-βit G65C-L1-RNA protein-linker-RNA conjugate (designed binder)
chain: B1 chain with C61I, G65C
modifications: here or on the partner: cysteine 65 joined by thiol-maleimide Michael addition to linker L1, whose DBCO is joined by SPAAC to the azide-functionalised 17mer RNA conjRNA1
B4: LHD101A-βit G65C-L2-RNA protein-linker-RNA conjugate (designed binder)
chain: B1 chain with C61I, G65C
modifications: here or on the partner: cysteine 65 joined by thiol-maleimide Michael addition to linker L2, whose DBCO is joined by SPAAC to the azide-functionalised 17mer RNA conjRNA1
B5: LHD101A-βit E62C-L1-RNA protein-linker-RNA conjugate (designed binder)
chain: B1 chain with C61I, E62C
modifications: here or on the partner: cysteine 62 joined by thiol-maleimide Michael addition to linker L1, whose DBCO is joined by SPAAC to the azide-functionalised 17mer RNA conjRNA1
B6: LHD101A-βit E62C-L2-RNA protein-linker-RNA conjugate (designed binder)
chain: B1 chain with C61I, E62C
modifications: here or on the partner: cysteine 62 joined by thiol-maleimide Michael addition to linker L2, whose DBCO is joined by SPAAC to the azide-functionalised 17mer RNA conjRNA1
B7: LHD101A-βit E60C-L1 protein-linker conjugate (designed binder)
chain: B1 chain with E60C, C61I
modifications: here or on the partner: cysteine 60 joined by thiol-maleimide Michael addition to linker L1 (maleimide-DBCO, shorter, more rigid)
B8: LHD101A-βit E60C-L2 protein-linker conjugate (designed binder)
chain: B1 chain with E60C, C61I
modifications: here or on the partner: cysteine 60 joined by thiol-maleimide Michael addition to linker L2 (maleimide-DBCO, longer, more flexible)

Legend:
[1] = target: LHD101B-αLux; assay: split reporter (BiFC, NanoBiT); time-course luminescence; protein-linker-RNA conjugate of A and protein B preincubated until a baseline signal, then RNase A added manually after 30 min; S/B = maximum signal after RNA cleavage divided by the baseline signal
[2] = target: LHD101B-αLux; assay: split reporter (BiFC, NanoBiT); 96-well plate; 2.5 nM BC10 and 2.5 nM B protein with preincubated 100 nM Cas13 and 50 nM crRNA1 in 1x HBS-EP+ buffer, 50 μM LuxSit Pro Substrate; target RNA added after 5 min of baseline; 1 h at room temperature
[3] = target: LHD101B-αLux; assay: split reporter (BiFC, NanoBiT); protein-linker conjugates of protein A with protein B in solution; luminescence relative to the naked cysteine mutant (Figure 2c)

Binder	S/B change (maximum signal after RNA cleavage by RNase A divided by the baseline signal with intact RNA) [1]	further results
B1	> 1.3	–
B2	> 1.3	–
B3	> 1.3	–
B4	> 1.3	–
B5	2	maximum S/B ratio (signal after RNA cleavage by activated Cas13 divided by the baseline signal with intact RNA) [2]: 1.6; maximum luminescence signal after RNA cleavage by RNase A [1]: 100000 RLU
B6	1.89	–
B7	–	luminescence signal relative to the naked cysteine mutant [3]: > 20%
B8	–	luminescence signal relative to the naked cysteine mutant [3]: > 20%
